In publication PMC6044475:

What was measured:
Assay in all cases: SEC
[1] = biological target: Eca E318Q (Enterococcus casseliflavus)
[2] = biological target: Eca T320A (Enterococcus casseliflavus)
[3] = biological target: Eca Y396A (Enterococcus casseliflavus)

Q: Eca E318Q (natural protein) was tested. Which stoichiometry N [1] did it give?
A: The stoichiometry N was 2.

Q: How did the stoichiometry N [2] turn out when Eca T320A (natural protein) was run?
A: Its stoichiometry N is 2.

Q: With Eca Y396A (natural protein) as the substance, how does the stoichiometry N [3] read?
A: Its stoichiometry N is 2.
